One molecule from paper PMC11806408 (2025) can be followed below.

This assay addresses fibrillin‐1 fragment start‐EGF4 (UniProt P35555 45-287). Briefly: SPR.

Sequence of fibrillin‐1 fragment start‐EGF4 (P35555 45-287): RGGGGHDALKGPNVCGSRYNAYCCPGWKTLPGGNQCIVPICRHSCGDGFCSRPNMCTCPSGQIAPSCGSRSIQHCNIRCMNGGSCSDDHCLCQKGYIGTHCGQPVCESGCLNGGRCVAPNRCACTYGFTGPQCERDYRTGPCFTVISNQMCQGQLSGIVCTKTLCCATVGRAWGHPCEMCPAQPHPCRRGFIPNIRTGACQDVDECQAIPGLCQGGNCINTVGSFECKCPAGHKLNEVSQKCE

B1: processed BMP‐10 CPLX (tag‐free, HEK293) (complex)
chain 1: SPIMNLEQSPLEEDMSLFGDVFSEQDGVDFNTLLQSMKDEFLKTLNLSDIPTQDSAKVDPPEYMLELYNKFATDRTSMPSANIIRSFKNEDLFSQPVSFNGLRKYPLLFNVSIPHHEEVIMAELRLYTLVQRDRMIYDGVDRKITIFEVLESKGDNEGERNMLVLVSGEIYGTNSEWETFDVTDAIRRWQKSGSSTHQLEVHIESKHDEAEDASSGRLEIDTSAQNKHNPLLIVFSDDQSSDKERKEELNEMISHEQLPELDNLGLDSFSSGPGEEALLQMRSNIIYDSTARIRR
chain 2: NAKGNYCKRTPLYIDFKEIGWDSWIIAPPGYEAYECRGVCNYPLAEHLTPTKHAIIQALVHLKNSQKASKACCVPTKLEPISILYLDKGVVTYKFKYEGMAVSECGCR
modifications: N‐glycosylation
In the case of B1, binding was characterised by a dissociation constant (Kd) of 14.4 nM.
